Experimental findings from PMC3866869 are described below.

What all share (assay): crystal structure; hanging drop; protein in 25 mM HEPES pH 7.5, 150 mM NaCl, 5% glycerol with 5 mM glutamate or 1 mM KA, mixed 1:1 with reservoir (19-27% PEG 4000, 0-9% propan-2-ol, 80 mM sodium acetate); data collected at 100 K; LBD dimer, one (I222) or two (P212121) dimers in the asymmetric unit
Experiment [1] deals with GluK2 K531A ligand-binding domain (rat) (UniProt P42260).
For experiment [2], the target named is GluK2 K531A-T779G ligand-binding domain (rat) (UniProt P42260).
The target in experiment [3] is GluK2 R775A ligand-binding domain (rat) (UniProt P42260).

The substance “GluK2 K531A ligand-binding domain (from UniProt P42260 32-544; P42260 667-908) (domain or fragment)” yielded a stoichiometry N in experiment [1] of 2.
Substance “GluK2 K531A-T779G ligand-binding domain (from UniProt P42260 32-544; P42260 667-908) (domain or fragment)” gave a stoichiometry N in experiment [2] of 2.
As to “GluK2 R775A ligand-binding domain (from UniProt P42260 32-544; P42260 667-908) (domain or fragment)”, the stoichiometry N in experiment [3] was 2.
